In patent US20190002563A1 (MacroGenics, published 2019):

B1: DART-B (bispecific antibody)
chain 1: DIQMTQSPSSLSASVGDRVTITCRASQDISNYLNWYQQKPGKAPKLLIYYTSRLHSGVPSRFSGSGSGTDFTLTISSLQPEDIATYYCQQGNTLPPTFGGGTKLEIKGGGSGGGGEVQLVESGGGLVQPGGSLRLSCAASGFTFSTYAMNWVRQAPGKGLEWVGRIRSKYNNYATYYADSVKDRFTISRDDSKNSLYLQMNSLKTEDTAVYYCVRHGNFGNSYVSWFAYWGQGTLVTVSSGGCGGGEVAALEKEVAALEKEVAALEKEVAALEKGGGDKTHTCPPCPAPEAAGGPSVFLFPPKPKDTLMISRTPEVTCVVVDVSHEDPEVKFNWYVDGVEVHNAKTKPREEQYNSTYRVVSVLTVLHQDWLNGKEYKCKVSNKALPAPIEKTISKAKGQPREPQVYTLPPSREEMTKNQVSLWCLVKGFYPSDIAVEWESNGQPENNYKTTPPVLDSDGSFFLYSKLTVDKSRWQQGNVFSCSVMHEALHNHYTQKSLSLSPGK
chain 2: QAVVTQEPSLTVSPGGTVTLTCRSSTGAVTTSNYANWVQQKPGQAPRGLIGGTNKRAPWTPARFSGSLLGGKAALTITGAQAEDEADYYCALWYSNLWVFGGGTKLTVLGGGGSGGGGQVQLVQSGAEVKKPGASVKVSCKASGYTFTSYWMQWVRQAPGQGLEWMGTIYPGDGDTRYTQKFKGRVTITADKSTSTAYMELSSLRSEDTAVYYCARRGIPRLWYFDVWGQGTTVTVSSGGCGGGKVAALKEKVAALKEKVAALKEKVAALKE
chain 3: not shown
notes: Three-chain Fc diabody; also called B7-H3×CD3 bispecific monovalent Fc diabody
B2: DART-A (bispecific antibody)
chain 1: DIQLTQSPSFLSASVGDRVTITCKASQNVDTNVAWYQQKPGKAPKALIYSASYRYSGVPSRFSGSGSGTDFTLTISSLQPEDFATYYCQQYNNYPFTFGQGTKLEIKGGGSGGGGEVQLVESGGGLVQPGGSLRLSCAASGFTFSTYAMNWVRQAPGKGLEWVGRIRSKYNNYATYYADSVKDRFTISRDDSKNSLYLQMNSLKTEDTAVYYCVRHGNFGNSYVSWFAYWGQGTLVTVSSGGCGGGEVAALEKEVAALEKEVAALEKEVAALEKGGGDKTHTCPPCPAPEAAGGPSVFLFPPKPKDTLMISRTPEVTCVVVDVSHEDPEVKFNWYVDGVEVHNAKTKPREEQYNSTYRVVSVLTVLHQDWLNGKEYKCKVSNKALPAPIEKTISKAKGQPREPQVYTLPPSREEMTKNQVSLWCLVKGFYPSDIAVEWESNGQPENNYKTTPPVLDSDGSFFLYSKLTVDKSRWQQGNVFSCSVMHEALHNHYTQKSLSLSPGK
chain 2: QAVVTQEPSLTVSPGGTVTLTCRSSTGAVTTSNYANWVQQKPGQAPRGLIGGTNKRAPWTPARFSGSLLGGKAALTITGAQAEDEADYYCALWYSNLWVFGGGTKLTVLGGGGSGGGGEVQLVESGGGLVQPGGSLRLSCAASGFTFSSFGMHWVRQAPGKGLEWVAYISSDSSAIYYADTVKGRFTISRDNAKNSLYLQMNSLRDEDTAVYYCGRGRENIYYGSRLDYWGQGTTVTVSSGGCGGGKVAALKEKVAALKEKVAALKEKVAALKE
chain 3: not shown
notes: Three-chain Fc diabody, one B7-H3 site and one CD3 site; chains are disulfide bonded; also called B7-H3×CD3 bispecific monovalent Fc diabody

How the values were obtained:
human B7-H3 on cells [1] = molecular target: T1, human B7-H3 on cells (human, UniProt Q5ZPR3 29-534); test: cell-based or functional assay
T1 sequence (looked up): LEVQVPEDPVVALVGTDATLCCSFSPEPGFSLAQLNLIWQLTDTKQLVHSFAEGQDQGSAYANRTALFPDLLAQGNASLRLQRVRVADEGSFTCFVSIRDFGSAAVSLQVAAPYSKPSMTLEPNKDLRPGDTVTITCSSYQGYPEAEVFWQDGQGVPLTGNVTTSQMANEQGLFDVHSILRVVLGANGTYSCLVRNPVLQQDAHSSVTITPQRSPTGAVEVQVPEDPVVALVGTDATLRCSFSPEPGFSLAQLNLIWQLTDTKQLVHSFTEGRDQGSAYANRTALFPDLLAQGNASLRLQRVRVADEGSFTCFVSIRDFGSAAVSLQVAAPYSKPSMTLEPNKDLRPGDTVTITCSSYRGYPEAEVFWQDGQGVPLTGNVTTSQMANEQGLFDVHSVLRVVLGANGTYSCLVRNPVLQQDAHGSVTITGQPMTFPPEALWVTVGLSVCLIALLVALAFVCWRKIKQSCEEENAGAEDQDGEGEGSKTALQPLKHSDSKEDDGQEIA

human B7-H3 on cells [2] = molecular target: T1, human B7-H3 on cells; test: cell-based or functional assay; remark: listed apart in the source
human B7-H3 on cells [3] = molecular target: T1, human B7-H3 on cells; test: cell-based or functional assay; remark: listed apart in the source
Cynomolgus B7-H3 = molecular target: T2, Cynomolgus B7-H3 (cynomolgus monkey); test: SPR (BIAcore)
T2 chain: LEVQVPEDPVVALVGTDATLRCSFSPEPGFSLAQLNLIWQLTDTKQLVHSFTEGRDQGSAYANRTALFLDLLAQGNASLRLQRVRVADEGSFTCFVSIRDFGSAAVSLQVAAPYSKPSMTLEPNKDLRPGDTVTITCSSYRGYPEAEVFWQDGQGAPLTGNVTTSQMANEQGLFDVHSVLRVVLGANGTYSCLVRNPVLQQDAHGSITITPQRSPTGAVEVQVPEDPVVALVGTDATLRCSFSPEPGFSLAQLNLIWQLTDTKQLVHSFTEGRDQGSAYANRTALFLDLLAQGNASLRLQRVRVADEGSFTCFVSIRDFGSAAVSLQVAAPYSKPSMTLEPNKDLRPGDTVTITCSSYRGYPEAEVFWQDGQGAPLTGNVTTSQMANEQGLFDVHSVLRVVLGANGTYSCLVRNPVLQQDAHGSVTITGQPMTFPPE

| Binder | potency of redirected cell killing against DART-A (target cell lines including A498, THP-1 and DU145) (human B7-H3 on cells [1]) [fold] | EC50 of redirected killing, A375 target cells, E:T 1:1 (LDH assay) (human B7-H3 on cells [2]) [µg/mL] | EC50 of redirected killing, A375 target cells, E:T 5:1 (LDH assay) (human B7-H3 on cells [2]) [µg/mL] | EC50 of redirected killing, A375 target cells, E:T 10:1 (LDH assay) (human B7-H3 on cells [2]) [µg/mL] | EC50 of redirected killing, A498 target cells, E:T 1:1 (LDH assay) (human B7-H3 on cells [2]) [µg/mL] | EC50 of redirected killing, A498 target cells, E:T 5:1 (LDH assay) (human B7-H3 on cells [2]) [µg/mL] | EC50 of redirected killing, A498 target cells, E:T 10:1 (LDH assay) (human B7-H3 on cells [2]) [µg/mL] | EC50 of redirected killing, 22Rv1 target cells, human T cells, E:T 5:1 (human B7-H3 on cells [3]) [µg/mL] | EC50 of redirected killing, A375 target cells, human T cells, E:T 5:1 (human B7-H3 on cells [3]) [µg/mL] | EC50 of redirected killing, A498 target cells, human T cells, E:T 5:1 (human B7-H3 on cells [3]) [µg/mL] | EC50 of redirected killing, BxPC-3 target cells, human T cells, E:T 5:1 (human B7-H3 on cells [3]) [µg/mL] | EC50 of redirected killing, DU145 target cells, human T cells, E:T 5:1 (human B7-H3 on cells [3]) [µg/mL] | EC50 of redirected killing, Detroit562 target cells, human T cells, E:T 5:1 (human B7-H3 on cells [3]) [µg/mL] | EC50 of redirected killing, JIMT-1/Luc target cells, human T cells, E:T 5:1 (human B7-H3 on cells [3]) [µg/mL] | EC50 of redirected killing, SKMES-1 target cells, human T cells, E:T 5:1 (human B7-H3 on cells [3]) [µg/mL] | EC50 of redirected killing, U87 target cells, human T cells, E:T 5:1 (human B7-H3 on cells [3]) [µg/mL] | Kd (Cynomolgus B7-H3) [nM] | koff (Cynomolgus B7-H3) [s⁻¹] | kon (Cynomolgus B7-H3) [M⁻¹ s⁻¹] |
| --- | --- | --- | --- | --- | --- | --- | --- | --- | --- | --- | --- | --- | --- | --- | --- | --- | --- | --- | --- |
| B1 | ~6 |  |  |  |  |  |  |  |  |  |  |  |  |  |  |  |  |  |  |
| B2 |  | 0.352 | 0.243 | 0.166 | 0.129 | 0.0425 | 0.0272 | 0.212 | 0.097 | 0.064 | 0.196 | 0.084 | 1.28 | 0.047 | 0.319 | 0.099 | 30.2 | 0.0051 | 170000 |
